# From article doi:10.1101/2023.03.26.534243
# Key:
# Assay in all cases: BLI
# FcγRIIb/c = FcγRIIb/c (UniProt P31994)
# FcγRIIa_(H167) = FcγRIIa_(H167) (UniProt P12318)
# FcγRIa = FcγRIa (UniProt P12314)
# FcγRIIIa_(F176) = FcγRIIIa_(F176) (UniProt P08637)
# FcγRIIIa_(V176) = FcγRIIIa_(V176) (UniProt P08637)
# Chain of UniProt P12314 (P12314 16-292): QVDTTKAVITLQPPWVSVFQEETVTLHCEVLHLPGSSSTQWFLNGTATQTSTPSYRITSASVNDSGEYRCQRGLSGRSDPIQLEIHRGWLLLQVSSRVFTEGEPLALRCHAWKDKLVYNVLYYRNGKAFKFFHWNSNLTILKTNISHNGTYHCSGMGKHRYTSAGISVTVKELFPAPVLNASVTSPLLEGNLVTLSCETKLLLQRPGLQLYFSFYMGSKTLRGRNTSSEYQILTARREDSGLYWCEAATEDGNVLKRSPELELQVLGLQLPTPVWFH
# Chain of UniProt P12318 (P12318 34-217): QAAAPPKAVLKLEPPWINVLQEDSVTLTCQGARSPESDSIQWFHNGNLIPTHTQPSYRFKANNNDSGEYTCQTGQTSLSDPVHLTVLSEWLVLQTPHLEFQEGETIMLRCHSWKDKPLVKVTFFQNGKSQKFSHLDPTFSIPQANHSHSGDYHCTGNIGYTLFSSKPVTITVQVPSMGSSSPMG
# Chain of UniProt P31994 (P31994 43-217): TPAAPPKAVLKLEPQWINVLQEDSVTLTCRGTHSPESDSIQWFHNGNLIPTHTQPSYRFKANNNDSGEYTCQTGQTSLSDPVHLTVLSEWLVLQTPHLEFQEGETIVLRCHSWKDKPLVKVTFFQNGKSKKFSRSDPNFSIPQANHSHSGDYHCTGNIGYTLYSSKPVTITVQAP
substance,measurement,setting,value
Pertuzumab IgG2 VH1 (antibody),kon,FcγRIIb/c,176000 M⁻¹ s⁻¹
Pertuzumab IgG2 VH3 (antibody),kon,FcγRIIb/c,308000 M⁻¹ s⁻¹
Pertuzumab IgG2 VH4 (antibody),koff,FcγRIIb/c,0.00934 s⁻¹
same,kon,FcγRIIa_(H167),360000 M⁻¹ s⁻¹
Pertuzumab IgG3 VH1 (antibody),koff,FcγRIa,0.000553 s⁻¹
same,kon,FcγRIa,208000 M⁻¹ s⁻¹
same,Kd,FcγRIIIa_(F176),92.9 nM
same,koff,FcγRIIIa_(F176),0.0328 s⁻¹
same,kon,FcγRIIIa_(F176),160000 M⁻¹ s⁻¹
Pertuzumab IgG3 VH3 (antibody),Kd,FcγRIIa_(H167),5.75 nM
same,Kd,FcγRIIIa_(V176),181 nM
same,koff,FcγRIIIa_(V176),0.0178 s⁻¹
same,kon,FcγRIIIa_(V176),13500 M⁻¹ s⁻¹
Pertuzumab IgG3 VH4 (antibody),kon,FcγRIIb/c,72900 M⁻¹ s⁻¹
same,Kd,FcγRIIIa_(V176),88.7 nM
Pertuzumab IgG3 VH5 (antibody),Kd,FcγRIIb/c,24.8 nM
same,koff,FcγRIIa_(H167),0.00279 s⁻¹
Pertuzumab IgG4 VH1 (antibody),Kd,FcγRIa,3.62 nM
Pertuzumab IgG4 VH2 (antibody),Kd,FcγRIa,75.7 nM
Pertuzumab IgG4 VH3 (antibody),Kd,FcγRIa,127 nM
Pertuzumab IgG4 VH4 (antibody),Kd,FcγRIa,191 nM
Pertuzumab IgG4 VH5 (antibody),Kd,FcγRIa,151 nM
Pertuzumab IgG4 VH6 (antibody),Kd,FcγRIa,7.15 nM
Pertuzumab IgG4 VH7 (antibody),Kd,FcγRIa,20.7 nM
